Experimental data: patent US6210929A, “Fusion protein comprising a furin derivative or a derivative of a furin analogue and a heterologous sequence” (Baxter Aktiengesellschaft, priority 1995, dated 2001)

B1: r-furinΔTM-His: furin with transmembrane and cytoplasmatic part (amino acids 708 to 794) deleted, six histidine residues appended after amino acid 707; SEQ.ID.NO. 9 (protein)
chain: MELRPWLLWVVAATGTLVLLAADAQGQKVFTNTWAVRIPGGPAVANSVARKHGFLNLGQIFGDYYHFWHRGVTKRSLSPHRPRHSRLQREPQVQWLEQQVAKRRTKRDVYQEPTDPKFPQQWYLSGVTQRDLNVKAAWAQGYTGHGIVVSILDDGIEKNHPDLAGNYDPGASFDVNDQDPDPQPRYTQMNDNRHGTRCAGEVAAVANNGVCGVGVAYNARIGGVRMLDGEVTDAVEARSLGLNPNHIHIYSASWGPEDDGKTVDGPARLAEEAFFRGVSQGRGGLGSIFVWASGNGGREHDSCNCDGYTNSIYTLSISSATQFGNVPWYSEACSSTLATTYSSGNQNEKQIVTTDLRQKCTESHTGTSASAPLAAGIIALTLEANKNLTWRDMQHLVVQTSKPAHLNANDWATNGVGRKVSHSYGYGLLDAGAMVALAQNWTTVAPQRKCIIDILTEPKDIGKRLEVRKTVTACLGEPNHITRLEHAQARLTLSYNRRGDLAIHLVSPMGTRSTLLAARPHDYSADGFNDWAFMTTHSWDEDPSGEWVLEIENTSEANNYGTLTKFTLVLYGTAPEGLPVPPESSGCKTLTSSQACVVCEEGFSLHQKSCVQHCPPGFAPQVLDTHYSTENDVETIRASVCAPCHASCATCQGPALTDCLSCPSHASLDPVEQTCSRQSQSSRESPPQQQPPRLPPEVEAGQRLRAGHHHHHH
modifications: His6 tag
B2: CHO-r-furinΔCys-spacer-His: r-furinΔCys (to amino acid 585) with spacer Ala-Ala-Gly-Gly-Ala-Ala and six histidine residues; SEQ.ID.NO. 21 (protein)
chain: MELRPWLLWVVAATGTLVLLAADAQGQKVFTNTWAVRIPGGPAVANSVARKHGFLNLGQIFGDYYHFWHRGVTKRSLSPHRPRHSRLQREPQVQWLEQQVAKRRTKRDVYQEPTDPKFPQQWYLSGVTQRDLNVKAAWAQGYTGHGIVVSILDDGIEKNHPDLAGNYDPGASFDVNDQDPDPQPRYTQMNDNRHGTRCAGEVAAVANNGVCGVGVAYNARIGGVRMLDGEVTDAVEARSLGLNPNHIHIYSASWGPEDDGKTVDGPARLAEEAFFRGVSQGRGGLGSIFVWASGNGGREHDSCNCDGYTNSIYTLSISSATQFGNVPWYSEACSSTLATTYSSGNQNEKQIVTTDLRQKCTESHTGTSASAPLAAGIIALTLEANKNLTWRDMQHLVVQTSKPAHLNANDWATNGVGRKVSHSYGYGLLDAGAMVALAQNWTTVAPQRKCIIDILTEPKDIGKRLEVRKTVTACLGEPNHITRLEHAQARLTLSYNRRGDLAIHLVSPMGTRSTLLAARPHDYSADGFNDWAFMTTHSWDEDPSGEWVLEIENTSEANNYGTLTKFTLVLYGTAPEGLPVPPESSAAGGAAHHHHHH
modifications: spacer and His6 tag
notes: r-furinΔCys (to amino acid 585) with spacer Ala-Ala-Gly-Gly-Ala-Ala and six histidine residues; 21

What was measured:
[1] = test system: Boc-Arg-Val-Arg-Arg-AMC; test: AMC peptide substrate test (fluorogenic substrate test) of furin or fusion protein activity; format: biochemical; settings: for Intensity of the fluorescent emission at 438 nm: supernatants of permanent CHO cell clones, 2 hours of incubation, 30° C.
Protocol: By the action of furin, AMC (7-amino-4-methyl coumarin) is cleaved from the substrate. […] The fluorescent spectroscopic detection of the furin or fusion protein activity was effected at 30° C. in stirred quartz cells in a test volume of 2 ml. 1.7 ml of 100 mM HEPES buffer (pH 7.4, 1 mM CaCl2 and 1 mM 2-mercaptoethanol) were mixed with 0.1 ml of a substrate solution (final substrate concentration in the test: 0.1 mM) and 0.2 ml of the sample. The fluorescence was excited at a wave length of 380 nm. After 2 hours of incubation, the fluorescent emission was measured at 438 nm (Table 1).
The supernatants of various permanent CHO-r-furinΔTM-His cell clones and, as the controls, of CHO-rvWF/r-furin cells and CHO cells were subjected to the AMC peptide substrate test. The intensity of the fluorescent emission at 438 nm reflects the activity.
The activity of CHO-r-furinΔTM-His cells from cell culture supernatants before their binding to the column matrix, the individual washing fractions as well as the eluate were determined by means of AMC peptide substrate test.
The influence of imidazole on the furin activity was determined.
For this, 1 ml of Ni^2 +-NTA matrix (Quiagen), equilibrated in serum-free cell culture medium was loaded at 4° C. with 10 ml of imidazole-free CHO-r-furinΔCys-spacer-10xHis cell culture supernatant, and, as the negative control, with conditioned medium of non-manipulated CHO cells, respectively. Then the matrix was washed three times at room temperature with serum-free cell culture medium, and subsequently the fluorogenic substrate was contacted at 30° C. with immobilized r-furinΔCys-spacer-10xHis. As the positive control, CHO-r-furinΔCys-spacer-10xHis cell culture supernatant was tested for its ability to react fluorogenic substrate in solution.

[2] = test system: pro-vWF; test: Co-expression of pro-vWF and r-furin in CHO cells, Western blot of cell culture supernatants; format: cell-based, human
Text: The expression plasmid for rvWF, phAct-vWF (FIG. 1), was co-transfected with the selection marker plasmid pSV-rdhfr (FIG. 1) in dhfr-deficient CHO cells, the efficiently pro-rvWF-expressing clone CHO-rvWF was selected under selection conditions, and this clone was sub-cloned to stability (Fischer et al., 1994. Febs Lett. 351:345-349). For a further analysis and for rvWF expression and function studies, the cells were at first washed with PBS several times, and subsequently, unless indicated otherwise, incubated in selection medium without serum, with a regular 24 hour medium exchange.
Approximately 40% of the rvWF secreted into the cell supernatant of CHO-rvWF was unprocessed (FIG. 2 II A). To increase the efficiency of the propeptide cleavage, the r-furin expression vector pSV-r-furink in the following was co-transfected with the selection marker plasmid pUCSV-neo into the CHO-rvWF cell clone. Under selection conditions (500 μg G418/ml), clones were identified which express r-furin in addition to rvWF (CHO-rvWF/r-furin; FIGS. 2 I A, B).
The detection of rvWF in the cell culture supernatant was effected by means of Western blot analysis (FIGS. 2 I A and II A). For this, 10 μl of reduced cell culture supernatant were separated by means of SDS-PAGE (Lammli, Nature 227:680-685, 1970), and subsequently the proteins were transferred to nitrocellulose membranes by means of the BioRad Mini Trans-Blot System (BioRad Laboratories, Richmond, Calif., USA). The Protoblot-System from Promega (Madison, Wis., USA) was used to visualize rvWF secreted into the cell culture supernatant. Rabbit anti-vWF serum (Order No. A 082) from Dakopatts (Glostrup, Denmark) was used as the antibody for vWF binding.
The detection of r-furin in the cell culture supernatant was also effected by means of Western blot analysis (FIGS. 2 I B and II B). r-Furin was visualized by using the anti-h-furin murine monoclonal antibody MON 148 (van Duijnhoven et al., Hybridoma 11: 71-86, 1992) and, as the second antibody, anti-murine IgG alkaline phosphatase conjugated goat serum (Sigma A 4656).

[3] = test system: pro-rvWF; test: In vitro cleavage of pro-rvWF by r-furin or fusion protein, Western blot analysis; format: biochemical, human; settings: for in vitro processing of pro-rvWF in mixed supernatants: CHO-rvWF/r-furin and CHO-rvWF supernatants 1:1, 37° C.
Protocol: CHO-rvWF, CHO-rvWF/r-furin, CHO-rvWF and CHO (at a ration of 1:1), as well as CHO-rvWF and CHO-rvWF/r-furin (at a ration of 1:1) were mixed accordingly and incubated at 37° C.
Aliquots of the reaction formulations were tested for processed vWF by means of Western blot analysis immediately before incubation and after mixing of the cell culture supernatants, respectively; further aliquots were taken at time intervals of 24 hours each and assayed.
For this, 20 ml of serum-free cell culture supernatant of CHO-rvWF cells, adjusted to 2 mM imidazole, were passed over the column. […] Samples of the cell culture supernatant which were not subjected to a protease treatment served as the controls.
The negative control, an unmanipulated CHO cell culture supernatant (without r-furinΔCys-spacer-10xHis) was processed in an analogous manner on the Ni^2+ -NTA matrix.
Aliquots of the reaction mixtures were taken at the beginning of the test as well as at various points of time and frozen.
The Fractogel EMD® tentacle gel was loaded with Ni^2+ ions according to the manufacturer's instructions and equilibrated with fresh serum-free cell culture medium. Subsequently, the column was loaded with serum-free CHO-r-furinΔCys-spacer-10xHis supernatant. Washing steps were effected by serum-free cell culture medium, containing increasing imidazol concentrations up to 40 mM. Subsequently, the pro-protein substrate was guided over the column as serum-free CHO supernatant.

[4] = test system: rFX; test: FX activity by FX-Coatest-Kit (RVV activation, chromogenic substrate S-2337); format: biochemical, human
Protocol: For this, 50 μl of each supernatant were admixed with 50 μl of FX-deficient human plasma, and according to the protocol of the producer, rFX was reacted to rFXa with snake venom (RVV) in the presence of CaCl2 ; rFXa subsequently hydrolyses the chromogenic substrate (S-2337) and leads to the liberation of the yellow-coloured paranitroaniline. Since the amount of rFXa and the colour intensity are proportional to each other, the amount of rFX activatable to rFXa/ml cell culture supernatant can be determined with the help of a calibration straight line, interpolated from values of the plasma dilution series.

[5] = test system: single-chain rFX; test: In vitro cleavage of the propeptide and processing of single-chain rFX, Western blot analysis; format: biochemical, human
Protocol: Aliquots each of the reactions were tested for processed rFX by means of Western blot analysis prior to incubation (t=0) and after various incubation periods (t=2, 4, 6 hours) (FIG. 10). The detection of rFX in the cell culture supernatants was effected by means of anti-human FX antiserum (FIG. 10A) and of a monoclonal antibody specific to the light chain of FX (FIG. 10B).

| Molecule | Intensity of the fluorescent emission at 438 nm [1] | processing of pro-vWF in co-expressing cells ([2]; medium exchange every 8 hours, serum-free) | processing of pro-vWF in co-expressing cells ([2]; serum-free 24 hour cell culture supernatants) | processing of pro-vWF in co-expressing cells ([2]; serum-free 24 hour cell culture supernatants, listed as CHO rvWF/r-furin) | in vitro processing of pro-rvWF in mixed supernatants ([3]; 48 h and 96 h) | in vitro processing of pro-rvWF in mixed supernatants ([3]; after 24 hours) | INTENSITY (AMC peptide substrate test) ([1]; 1st washing fraction of Ni2+-NTA column) | INTENSITY (AMC peptide substrate test) ([1]; 2nd washing fraction of Ni2+-NTA column) | INTENSITY (AMC peptide substrate test) ([1]; 3rd washing fraction of Ni2+-NTA column) | INTENSITY (AMC peptide substrate test) ([1]; eluate from Ni2+-NTA matrix (buffer A containing 200 mM imidazole)) | INTENSITY (AMC peptide substrate test) ([1]; roller supernatant before binding to the Ni2+-NTA matrix) | processing of rpro-vWF on immobilized fusion protein ([3]; Ni2+ column, CHO-rvWF supernatant with 2 mM imidazole passed over, column eluate) | Activity ([4]; t = 6 hours, supernatants 1:1, 37° C.) [mU/ml] | % Functional FX ([4]; t = 6 hours, from activity and ELISA antigen) [%] | unspecific proteolytic activity (OD values) in mixture of CHO and CHO-r-furinΔTM-His supernatants ([4]; without rFX, % of the proteolytic activity) | processing of rFX [5] |
| --- | --- | --- | --- | --- | --- | --- | --- | --- | --- | --- | --- | --- | --- | --- | --- | --- |
| CHO-rvWF/r-furin: supernatant or cells of CHO clone co-expressing rvWF and complete recombinant human furin (r-furin), used as source of r-furin | 444 | significant amounts of pro-rvWF | only the completely processed rvWF | completely processed | completely processed vWF | only a slight portion of unprocessed pro-vWF | – | – | – | – | – | – | – | – | – | – |
| B1 | 2524 | – | – | – | – | – | 340 | 280 | 121 | 2820 | 2664 | only completely processed vWF | 344 | 43 | less than 7% | – |
| B2 | – | – | – | – | – | – | – | – | – | – | – | – | – | – | – | demonstrated |
